Reference: patent publication CN107522783A

Biological target: Recombinant human IL-17A (Sino Biological, 12047-HNAS) (human) (UniProt Q16552)
Test: indirect ELISA, human IL-17A coated (Table 7, not in this copy)

Sequence of Recombinant human IL-17A (Sino Biological, 12047-HNAS) (human) (Q16552 24-155): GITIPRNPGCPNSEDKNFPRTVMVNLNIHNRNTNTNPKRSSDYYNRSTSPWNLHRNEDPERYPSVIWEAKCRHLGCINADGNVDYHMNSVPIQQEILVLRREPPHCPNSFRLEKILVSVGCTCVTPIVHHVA

B1: 杂交瘤14F10/9F6产生的鼠源抗体 (antibody, V domains shown)
VH: QVQLQQSGPEVVRPGVSVKISCKGSGYTFTDYAMHWVKQSHAKSLEWIGVIGPYNDNTNYNQKFKGKATMTVDKSSSTAYMEIARLTSEDSAIYYCARGERYFDYWGQGTTLTVSS
VL: DIQMTQSSSYLSVSLGGRVTITCRASDHINNWLAWYQQKPGNAPRLLIYGATSLETGVPSRFSGSGSGKDYTLSITSLQTEDVATYYCQQYWTIPLTFGAGTKLELK
EC50 ratio to the humanized antibody: 3 fold
